Source: publication PMC3906306 (mAbs, 2013)
Values belong to the molecule of their own block, whether it stands above or below them.

How the values were obtained:
[1] = molecular target: EGFR extracellular domain-Cλ fusion protein (Homo sapiens) (UniProt P00533); assay: SPR
[2] = molecular target: EGFR extracellular domain-Cλ fusion protein (Homo sapiens, UniProt P00533); assay: SPR

Molecule: hu225 VH:F100cY (antibody)
Kd [1]: 4 nM

Molecule: hu225 VH:T57G (antibody)
Kd [1]: 3.9 nM

Molecule: hu225 VH:Y32R (antibody)
Kd [1]: 6.8 nM

B1: hu225 VL:G30Y (antibody, V domains shown)
VH: EVQLVESGGGLVQPGGSLRLSCAASGFSLTNYGVHWVRQAPGKGLEWLGVIWSGGNTDYNTPFTSRLTINKDNSKNTVYLQMNSLRAEDTAVYYCARALTYYDYEFAYWGQGTLVTVSS
VL: DILLTQSPGTLSLSPGERATLSCRASQSIYTNIHWYQQKPGQAPRLLIKYASESISGIPDRFSGSGSGTDFTLTISRLEPEDFAVYYCQQNNNWPTTFGQGTKLEIK
Kd [2]: 1.8 nM

Now from value to molecule:

Kd [1]: 1.9 nM
Molecule: hu225 VH:G33D (antibody)

Kd [1]: 3.1 nM
Molecule: hu225 VH:V50L (antibody)

Kd [1]: 1.6 nM
Molecule: hu225 VH:T97D (antibody)

Kd [1]: 3 nM
Molecule: hu225 VL:A25V (antibody)
